Test results published in patent US20150104450A1.

Assays:
[1] = target: cynomolgus monkey CD86 extracellular domain with FLAG 10xhis tag (cynomolgus monkey); test: SPR (Biacore 2000), CTLA-4-Fc amine-coupled to CM5, ligand ECD as analyte, monovalent affinity
[2] = target: human CD86 extracellular domain with FLAG 10xhis tag (human); test: as above
[3] = target: cynomolgus monkey CD86 extracellular domain with FLAG 10xhis tag (cynomolgus monkey); test: SPR (Biacore 2000), ratio of KD
[4] = target: human CD86 extracellular domain with FLAG 10xhis tag (human); test: SPR (Biacore 2000), ratio of KD

cynomolgus monkey CD86 extracellular domain with FLAG 10xhis tag (cynomolgus monkey), sequence (chain, as listed by the source limits assumed, form in doubt): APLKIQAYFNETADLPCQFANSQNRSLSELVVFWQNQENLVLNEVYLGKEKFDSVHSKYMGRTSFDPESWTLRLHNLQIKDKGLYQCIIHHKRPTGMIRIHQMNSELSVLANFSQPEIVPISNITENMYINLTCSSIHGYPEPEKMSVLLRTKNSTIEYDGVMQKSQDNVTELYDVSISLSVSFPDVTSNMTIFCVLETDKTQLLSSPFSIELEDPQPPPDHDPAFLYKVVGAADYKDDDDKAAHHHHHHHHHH
human CD86 extracellular domain with FLAG 10xhis tag (human), sequence (chain, as listed by the source limits assumed, form in doubt): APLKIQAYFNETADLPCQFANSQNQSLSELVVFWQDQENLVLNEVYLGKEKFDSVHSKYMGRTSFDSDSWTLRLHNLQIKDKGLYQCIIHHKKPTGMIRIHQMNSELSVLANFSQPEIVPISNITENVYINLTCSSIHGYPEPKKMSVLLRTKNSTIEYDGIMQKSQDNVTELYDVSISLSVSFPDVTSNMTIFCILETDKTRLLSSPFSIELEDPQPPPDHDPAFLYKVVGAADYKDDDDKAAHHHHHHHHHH

Kd [1]: 6.53 µM | Kd [2]: 6.42 µM | fold-improvement in affinity over wild type CTLA-4 in Fc fusion format [3]: 1 fold | fold-improvement in affinity over wild type CTLA-4 in Fc fusion format [4]: 1 fold
Substance: wild type CTLA-4 (SEQ ID NO: 35) in Fc fusion format
